# According to the RNAGym collection of RNA variant scans (doi:10.1073/pnas.2313332121):
# This sample holds only a part of the variants without activity.
# B1: TPR 5TU (parent)
# chain: GGAUCUUCUCGAUCUAACAAAAAAGACAAAUCUGCCACAAAGCUUGAGAGCAUCUUCGGAUGCAGAGGCGGCAGCCUUCGGUGGCGCGAUAGCGCCAACGUUCUCAACUAUGACACGCAAAACGCGUGCUCCGUUGAAUGGAGUUUAUCAUG
# Variants of: B1
# Assay: polymerase ribozyme fitness, log enrichment relative to wild type (log ratio); higher = more active; in vitro selection for triplet polymerase activity
# Outline: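 Fitness is a logarithmic measure of how a genotype enriched relative to the wild type, with replicate averages weighted by inverse variance. The logarithm uses base 2, and enrichment came from Illumina sequencing of input and output libraries. Those libraries were PCR-built, transcribed mutants of each subunit of a heterodimeric triplet polymerase ribozyme, passed through one triplicate in vitro selection round that included frozen incubation at −7 °C, gel excision of extended constructs and streptavidin-bead capture. Genotypes were kept only if they had ≥10 input reads and ≥1 read per output.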
row,Variant,polymerase ribozyme fitness (log ratio)
1,GGAUCUUCUCGAUCUAACAAAAAAGACAAAUCUGCCACAAAGCUUGAUAGCAUCUUCGGAUGCAGAGGCGGCAGCCUUCGGUGUCGCGAUAGCGCCAACGUUCUCAACUAUGACACGCAAAACGCGUGCUCCGUUGAAUGGAGUUUAUCAUG [G48U G84U],-2.01
2,GGAUCUUCUCGAUCUAACAAAAAAGACAAAUCUGCCACAAAGCUUGAUAGCAUCUUCGGAUGCAGAGGCGGCAGCCUUCGGUGGCGCGAUAGCGCCAACGUUCUCAACUAUGACACGCAAAACGCUUGCUCCGUUGAAUGGAGUUUAUCAUG [G48U G126U],-0.307
3,GGAUCUUCUCGAUCUAACAAAAAAGACAAAUCUGCCACAAAGCUUGAUAGCAUCUUCGGAUGCAGAGGCGGCAGCCUUCGGUGGCGCGAUAGCGCCAACGUUCUCAACUAUGACACGCAAAACGCGUGCUCCGUUGAAUGGAGUUUAUGAUG [G48U C149G],≤ -4.2
4,GGAUCUUCUCGAUCUAACAAAAAAGACAAAUCUGCCACAAAGCUUGAUCGCAUCUUCGGAUGCAGAGGGGGCAGCCUUCGGUGGCACGAUAGUGCCAACGUUCUCAACUAUGACACGCAAAACGCGUGCUCCGUUGAAGGGAGUUUAUCGUG [G48U A49C C69G G86A C93U U139G A150G],≤ -4.2
5,GGAUCUUCUCGAUCUAACAAAAAAGACAAAUCUGCCACAAAGCUUGAUAGCAUCUUCGAAUGCAGAGGCGGCAGCCUUCGGUGGCGCGAUAGUGCCAACGUUCUCAACUAUGACACGCAAAACGCGUGCUCCGUUGAAUGGAGUUUAUCAUG [G48U G59A C93U],-1.39
6,GGAUCUUCUCGAUCUAACAAAAAAGACAAAUCUGCCACAAAGCUUGACAGCAUCUCCGGAUGCAGAGGCGGCGGCCUUCGGUGGCGCGAUAGCGCCAACGUUCUCAACUAUGACACGAAAAACGCGUGCUCCGUUGAAUGGAGUUUAUCAUG [G48C U56C A73G C118A],-2.46
7,GGAUCUUCUCGAUCUAACAAAAAAGACAAAUCUGCCACAAAGCUUGAUAGCAUCUUCGCAUGCAGAGGCGGCAGCCUUCGAUGGCGCGAUAGCGCCUACGUUCUCAACUAUGACACGCAAAACGCGUGCUCCGUUGAAUGGAGUUUAUCAUG [G48U G59C G81A A97U],-1.88
8,GGAUCUUCUCGAUCUAACAAAAAAGACAAAUCUGCCACAAAGCUUGAGCGCCUAUUCGGAUGCAGAGGCGGCAUCGUUCGGUGGCGCGAUAGCGCCAACGUUCUCAACUAUGACACGCAAAACGUGUGCUCCGUUGAAUGGAGUUUAUCAUG [A49C A52C C54A G74U C76G C125U],≤ -4.2
9,GGAUCUUCUCGAUCUAACAAAAAAGACAAAUCUGCCACAAAGCUUGACAGCAUCUUCGGAUGCAGAGGCGGCAGCCUUCGGUGGCGCGAUAGCGCCAACGUUCUCAACUAUGACACGCAAAACGCGUGCUCCGUUGAAUGGAGUGUAUCAUG [G48C U145G],-0.0374
10,GGAUCUUCUCGAUCUAACAAAAAAGACAAAUCUGCCACAAAGCUUGAUAGCAUCUUCGGAUGCAGAGGCGGCAGGCUUCGGUGGCGCGAUAUCGCCAACGUUCUCAACUAUGACACGCAAAACGCGUGCUCCGUUGAAUGGAGUUUAUCAUG [G48U C75G G92U],≤ -4.2
11,GGAUCUUCUCGAUCUAACAAAAAAGACAAAUCUGCCACAAAGCUUGAGCGCAUCUUCGGAUGCAGAGGCGGCAGCCUUCGGUGGCGCGAUAGCGCCAACGUUCUCAACUAUGACACGCAAAACGCGUGCUCCGUUGAAUGGAGUUUAUCAUG [A49C],-4.19
12,GGAUCUUCUCGAUCUAACAAAAAAGACAAAUCUGCCACAAAGCUUGAUAGCAUCUUCGGAUGCAGAGGCGGCGGCCUUCGGUGGCGCGAUAGCGCCAACGUUCUCAACUAUGACACGCAAACCGCGUGCUCCGUUGAAUGGAGUUCAUCAUG [G48U A73G A122C U146C],-0.965
13,GGAUCUUCUCGAUCUAACAAAAAAGACAAAUCUGCCACAAAGCUUGAUAGCAUCUUCGGAUGCAGAGGCGGCAGCCUUCGGUGGCGCGAUAGCACCAACGUUCUCAACUAUGACACGCAAAACGCGUGCUCCGUUGAAUGGAGUUUAUCACG [G48U G94A U151C],≤ -4.2
14,GGAUCUUCUCGAUCUAACAAAAAAGACAAAUCUGCCACAAAGCUUGAUAGCUUCUUCGGAUGCAGAGGCGGCAGCCUUCGGUGGCGCGAUAGAGUCAACGUUCUCAACUAUGACACGCAAAACGCGUGCUCCGUUGAAUGGAGUAUAUCAUG [G48U A52U C93A C95U U145A],≤ -4.2
15,GGAUCUUCUCGAUCUAACAAAAAAGACAAAUCUGCCACAAAGCUUGAUAGCAUCUUCGGAUGCAGAGGCGGCAGCCUUCGGUGGCGCGAUAGCGCCAACGUUCUCGACUAUGACACGCAAAACGCGUGCUCCGUUGAAUGGAGUUUAUCAUG [G48U A106G],-1.48
16,GGAUCUUCUCGAUCUAACAAAAAAGACAAAUCUGCCACAAAGCUUGAUAGCAUCUUGGGAUGCAGAGGCGGCAGCCUUCGGUGGCGCGAUAGUGCCAACGUUCUCAACUAUGACACGCAAAACGCGUGCUCCGUUAAAUGGAGUUGAUCAUG [G48U C57G C93U G136A U146G],-2.43
17,GGAUCUUCUCGAUCUAACAAAAAAGACAAAUCUGCCACAAAGCUUGAUAGCAUCUUCGGAUGCAGAGGCGGCAGCCUUCGGUGGCGCGAUAGCGCCAACGUUCUCAACUAUGACACGGAAAACGCGUGCUCCGUUGAAUGGAGUUUAUCAUG [G48U C118G],-0.339
18,GGAUCUUCUCGAUCUAACAAAAAAGACAAAUCUGCCACAAAGCUUGAUAGCAUCAUCGGAUGCAGAGGCGGCAGCCUUCGGUGGCGCGAUAGCGCGAACGUUCUCAACUAUGACUCGCAAAACGCGUGCUCCGUUGAAUGGAGUUUAUCAUG [G48U U55A C96G A115U],-4.16
19,GGAUCUUCUCGAUCUAACAAAAAAGACAAAUCUGCCACAAAGCUUGAUAGCAUCUUCGGAUGCAGAGGCGGCAGCCUUCGGUGGUGCGAUAGCGCCAACGUUCUCAACUAUGACACGCAAAACGCGUGCUCCGUUGAAUUGAGUUUAUCAUG [G48U C85U G140U],≤ -4.2
